Laboratory results reported in patent US20240209095A1 (DEVELOPMENT CENTER FOR BIOTECHNOLOGY, published 2024).
Changes are numbered by the printed parent chain.

B1: 3C3 humanized antibody HuB2Hu2 (antibody, V domains shown)
VH: EVQLQESGPGLVKPSQTLSLTCTVSGYSITSDYWDWIRKPPGKGLEYMGYISYTGSTYYNPSLRSRITISRDTSKNQYSLKLSSVTAADTAVYYCARRGGWLSPFVYWGQGTLVTVSS
VL: DIVMTQTPLSLSVTPGQPASISCKSRQSLLFSSNQKNSLAWYLQKPGQSPQLLIYWASTRESGVPDRFSGSGSGTDFTLKISRVEAEDVGVYYCQQYYTYPFTFGQGTKLEIK
notes: Human IgG, kappa, from pTCAED vectors; also called 3C3-HuB2Hu2; 3C3 HuB2Hu2
B2: mouse hybridoma anti-human PD-L1 antibody 1G8 (antibody, V domains shown)
VH: QVQLQESGPGLAKPSQTLSLTCSVTGYSITSDYWNWIRKFPGNKLEFMGYISYTGSTYYNPSLKSRISITRDTSKNQYYLQLNSVTTEDTATYYCARRGEWLSPFAYWGQGTLVTVSA
VL: DIVMSQSPSSLGVSVGEKITMSCKSSQSLLYSSNQKNSLAWYQQKPGQSPKLLIYWASTRESGVPDRFTGSGSGTDFTLTISSVKSEDLAVYYCQQYYTYPFTFGAGTNLELK
notes: Mouse monoclonal antibody from hybridoma, detected with goat anti-mouse IgG; also called mAb 1G8; mouse clone 1G8
B3: mouse hybridoma anti-human PD-L1 antibody 3C3 (antibody, V domains shown)
VH: B2 VH with Q1E, A12T, N35D, F47Y, K64R, N83S, T87S, T90S, E100G, A106V
VL: B2 VL with I2T, K18R, I19V, M21L, S22T, S26R, Y31F, N109S
notes: Mouse monoclonal antibody from hybridoma, detected with goat anti-mouse IgG; also called mAb 3C3; mouse clone 3C3

How the values were obtained:
PDL1-hFc [1] = molecular target: T1, PDL1-hFc (UniProt Q9NZQ7 19-238); assay: ELISA, PDL1-hFc coated 1 µg/ml, antibody supernatant at 300 ng/ml, anti-human Kappa HRP
T1 construct: Coated at 1 µg/ml in the ELISAs of the chimeric and humanized antibodies; construct not described
Experimental: The binding activity of humanized antibodies could be efficiently compared by all combination of heavy chains and light chains using mini scale antibody expression. The concentration of antibodies in culture supernatant was determent by anti-human IgG ELISA. For PDL1 ELISA, plates were coating with PDL1-hFc 1 μg/ml and blocked by 5% milk PBS. Assay antibodies were adjusted to 300 ng/ml, 100 μl/well. Anti-PDL1 signals were measured by secondary goat anti-human Kappa HRP IgG 1:4000 and color developed by TMB substrates (KPL). Optical absorption value was measured at OD450-655 nm by Bio-Rad ELISA reader.

[2] = molecular target: T2, human PD-L1 expressed on cells (HCC827 cells; PD-L1 aAPC/CHO-K1 cells) (human, UniProt Q9NZQ7 19-290); assay: cell-based or functional assay
PDL1-hFc [3] = molecular target: T1, PDL1-hFc; assay: ELISA titration on PDL1-hFc, KD compared with parental 3C3 (FIG. 10)
Experimental: (§1) ELISA plates were coating with PDL1-hFc 1 ug/ml and blocked by 5% milk PBS, then add assay antibodies form 45 nM to 2.7×10⁻³ nM dilute (4× fold dilution). Assay will measured by add goat anti-human KAPPA HRP IgG 1:4000 and binding curve and KD was determined by GraphPad Prism software using One site-specific binding for none linear fit methods.

PDL1-hFc [4] = molecular target: T1, PDL1-hFc; assay: ELISA titration on PDL1-hFc 1 ug/ml, 45 nM to 2.7×10^-3 nM, one site-specific binding fit
Experimental: as §1

[5] = molecular target: T3, human PD-L1 (coated on ELISA plate) (human, UniProt Q9NZQ7 19-238, limits assumed); assay: ELISA, PD-L1 coated 0.1 µg/well, goat anti-mouse IgG-HRP
T3 construct: construct not described; also called CD274; B7 homolog 1
Experimental: Briefly, PD-L1 was coated on a 96-well ELISA plate (0.1 μg/well). After binding of anti-PD-L1 antibodies, a goat anti mouse IgG conjugated with horse radish peroxidase (HRP) was used as a second antibody and 3,3′,5,5′-Tetramethylbenzidine (TMB) was used as a substrate to assess the antibody-PD-L1 bindings. The OD405 was read to calculate the activities.

[6] = molecular target: T2, human PD-L1 expressed on cells (HCC827 …); assay: cell-based or functional assay; remark: listed apart in the source
[7] = molecular target: T2, human PD-L1 expressed on cells (HCC827 …); assay: cell-based or functional assay; remark: listed apart in the source

T1 sequence (Q9NZQ7 19-238): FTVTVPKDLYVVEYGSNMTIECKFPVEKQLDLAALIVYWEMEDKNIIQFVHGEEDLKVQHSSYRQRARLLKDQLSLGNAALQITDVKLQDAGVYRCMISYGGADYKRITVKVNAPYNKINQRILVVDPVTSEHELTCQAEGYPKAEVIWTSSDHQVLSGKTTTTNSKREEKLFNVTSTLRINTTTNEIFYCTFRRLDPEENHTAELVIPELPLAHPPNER
T2 sequence (Q9NZQ7 19-290): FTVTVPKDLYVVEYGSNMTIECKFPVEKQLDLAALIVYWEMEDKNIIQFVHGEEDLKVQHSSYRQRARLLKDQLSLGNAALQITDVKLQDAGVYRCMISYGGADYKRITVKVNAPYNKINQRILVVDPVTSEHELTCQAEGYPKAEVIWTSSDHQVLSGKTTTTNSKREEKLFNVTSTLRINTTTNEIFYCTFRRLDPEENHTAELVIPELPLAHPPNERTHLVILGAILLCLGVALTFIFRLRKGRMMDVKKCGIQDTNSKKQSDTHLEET
T3 sequence (Q9NZQ7 19-238 limits assumed): as the sequence (Q9NZQ7 19-238) above

Binder | OD450-650 nM, 300 ng/ml PDL1 binding (PDL1-hFc [1]) | 3C3 humanized antibodies Blockade Reporter Assay EC50 [2] | fold affinity loss against parental mouse clone 3C3 (PDL1-hFc [3]) | Kd (PDL1-hFc [4]) | Kd [5] | PD1/PD-L1 Blockade Reporter Assay EC50 [6] | Luc repoter EC50 [7]
B1 | 1.05 OD | 0.409 nM | < 2 fold | 0.101 nM |  |  | 
B2 |  |  |  |  | 0.0435 nM | 0.62 nM | 0.62 nM
B3 |  |  |  |  | 0.0356 nM | 0.582 nM | 0.58 nM
